Experimental data reported in patent US20020123614A1.

Key:
[1] = molecular target: wild-type LFA-1 (αL/β2 complex) (human) (UniProt P05107); assay: K562 (+CBRLFA-1/2) cell adhesion to immobilized ICAM-1
[2] = molecular target: LFA-1 high affinity open mutant K287C/K294C (αL K287C/K294C with β2) (human) (UniProt P05107); assay: flow cytometry, K562; normalised to TS2/4
[3] = molecular target: LFA-1 low affinity closed mutant L289C/K294C (αL L289C/K294C with β2) (human) (UniProt P05107); assay: flow cytometry, K562; normalised to TS2/4
[4] = molecular target: LFA-1 high affinity open mutant K287C/K294C (αL K287C/K294C with β2) (human) (UniProt P05107); assay: K562 cell adhesion to immobilized ICAM-1
[5] = molecular target: wild-type LFA-1 (αL/β2 complex) (human) (UniProt P05107); assay: cell adhesion to immobilized ICAM-1
[6] = molecular target: LFA-1 single cysteine substitution mutant K294C (human) (UniProt P05107); assay: flow cytometry, 293T; normalised to TS2/4
[7] = molecular target: LFA-1 high affinity open mutant K287C/K294C (αL K287C/K294C with β2) (human) (UniProt P05107); assay: flow cytometry, 293T; normalised to TS2/4
[8] = molecular target: LFA-1 low affinity closed mutant L289C/K294C (αL L289C/K294C with β2) (human) (UniProt P05107); assay: flow cytometry, 293T; normalised to TS2/4
[9] = molecular target: LFA-1 single cysteine substitution mutant K287C (human) (UniProt P05107); assay: flow cytometry, 293T; normalised to TS2/4
[10] = molecular target: LFA-1 single cysteine substitution mutant L289C (human) (UniProt P05107); assay: flow cytometry, 293T; normalised to TS2/4
[11] = molecular target: LFA-1 high affinity open mutant K287C/K294C (αL K287C/K294C with β2) (human) (UniProt P05107); assay: 293T cell adhesion to immobilized ICAM-1
[12] = molecular target: wild-type LFA-1 (αL/β2 complex) (human) (UniProt P05107); assay: 293T cell adhesion to immobilized ICAM-1
iC3b coated on plastic [13] = molecular target: iC3b coated on plastic (UniProt P01024); assay: cell adhesion to immobilized iC3b; -DTT, -activation
iC3b coated on plastic [14] = molecular target: iC3b coated on plastic (UniProt P01024); assay: cell adhesion to immobilized iC3b; -DTT, +activation
[15] = molecular target: LFA-1 high affinity open mutant K287C/K294C (αL K287C/K294C with β2) (human) (UniProt P05107); assay: flow cytometry on transfectants
[16] = molecular target: isolated mutant K287C/K294C αL I-domain (V130-A338) expressed on K562 cells by the PDGFR transmembrane domain (human) (UniProt P20701); assay: flow cytometry
Chain of isolated mutant K287C/K294C αL I-domain (V130-A338) expressed on K562 cells by the PDGFR transmembrane domain (human) (P20701 155-363 K312C/K319C limits assumed, form in doubt): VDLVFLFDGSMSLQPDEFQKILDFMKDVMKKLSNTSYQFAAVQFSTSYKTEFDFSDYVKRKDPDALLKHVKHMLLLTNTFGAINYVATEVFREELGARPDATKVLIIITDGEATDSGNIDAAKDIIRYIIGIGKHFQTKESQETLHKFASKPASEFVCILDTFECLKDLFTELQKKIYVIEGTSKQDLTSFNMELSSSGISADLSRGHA

iC3b coated on plastic [17] = molecular target: iC3b coated on plastic (UniProt P01024); assay: cell adhesion to immobilized iC3b; +DTT, +activation
[18] = molecular target: LFA-1 high affinity open mutant K287C/K294C (αL K287C/K294C with β2) (human) (UniProt P05107); assay: flow cytometry, K562; normalised to TS1/22
[19] = molecular target: LFA-1 high affinity open mutant K287C/K294C (αL K287C/K294C with β2) (human) (UniProt P05107); assay: cell adhesion to immobilized ICAM-1
[20] = molecular target: ICAM-1 purified from human tonsil, immobilized (human) (UniProt P05362); assay: 293T wild-type LFA-1 cell adhesion to immobilized ICAM-1
Chain of ICAM-1 purified from human tonsil, immobilized (human) (P05362 28-532 limits assumed, form in doubt): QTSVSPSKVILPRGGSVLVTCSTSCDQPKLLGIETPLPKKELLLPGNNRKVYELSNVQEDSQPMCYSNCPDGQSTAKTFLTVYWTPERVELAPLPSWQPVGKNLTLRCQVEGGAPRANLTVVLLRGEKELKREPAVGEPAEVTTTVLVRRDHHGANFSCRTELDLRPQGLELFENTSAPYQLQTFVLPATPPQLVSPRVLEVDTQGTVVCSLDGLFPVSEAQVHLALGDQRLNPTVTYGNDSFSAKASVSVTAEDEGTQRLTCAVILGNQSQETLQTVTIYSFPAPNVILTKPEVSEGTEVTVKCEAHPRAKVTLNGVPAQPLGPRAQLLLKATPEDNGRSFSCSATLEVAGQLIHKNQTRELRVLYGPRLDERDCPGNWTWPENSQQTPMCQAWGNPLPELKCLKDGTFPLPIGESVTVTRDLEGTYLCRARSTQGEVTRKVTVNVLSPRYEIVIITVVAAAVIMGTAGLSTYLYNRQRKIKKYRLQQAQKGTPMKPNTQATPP

[21] = molecular target: ICAM-1 purified from human tonsil, immobilized (human) (UniProt P05362); assay: 293T K287C/K294C LFA-1 cell adhesion to immobilized ICAM-1

Row | % inhibition [1] [%] | % wild-type binding [2] [%] | % wild-type binding [3] [%] | % inhibition [4] [%] | % inhibition [5] [%] | % wild-type binding [6] [%] | % wild-type binding [7] [%] | % wild-type binding [8] [%] | % wild-type binding [9] [%] | % wild-type binding [10] [%] | % inhibition [11] [%] | % inhibition [12] [%] | Substance | also measured
1 | 98.5 | 97.4 | 106 | 5.9 | > 90 | 108 | 99.8 | 95.7 | 87.9 | 87.3 |  |  | anti-β2 (CD18) monoclonal antibody TS1/18 | 
2 | 97.8 |  |  | 3.6 |  |  |  |  |  |  |  |  | monoclonal antibody CBRLFA-1/9 | % wild-type binding [18]: 84.7%
3 | 95.8 | 92.6 | 101 | 93.3 |  | 106 | 92.6 | 82.1 | 95.8 | 95.4 | 97.4 | 96.2 | monoclonal antibody May.035 | 
4 | 92 | 88.5 | 85.7 | 2.53 | > 90 |  | 93.1 | 90.9 |  |  | 3.71 | 90.5 | monoclonal antibody 25-3-1 | 
5 | 6.99 |  |  | 2.82 |  |  |  |  |  |  |  |  | mouse anti-human αL (CD11a) monoclonal antibody TS2/4 | 
6 | 96.9 | 93.1 | 110 | 93.6 |  | 92.2 | 95.8 | 91 | 103 | 96.2 | 95.1 | 95.8 | mouse anti-human αL (CD11a) monoclonal antibody TS1/22 | 
7 | 98.4 | 101 | 111 | 0.08 | > 90 |  | 103 | 95.1 |  |  |  |  | mAb YFC51 (antibody) | 
8 | 94.6 | 96.5 | 100 | 6.69 | > 90 |  |  |  |  |  |  |  | monoclonal antibody CLBLFA-1/1 | 
9 | 97.5 | 87.3 | 106 | 63.7 | > 90 | 93.7 | 88.7 | 102 | 99.3 | 104 | 49 | 95.7 | mouse anti-human αL (CD11a) monoclonal antibody TS1/12 | % inhibition [19]: 40 to 60%

The next lines start with the substance.

Row | Substance | % inhibition [1] [%] | % wild-type binding [2] [%] | % wild-type binding [3] [%] | % inhibition [4] [%] | % inhibition [5] [%] | % wild-type binding [6] [%] | % wild-type binding [7] [%] | % wild-type binding [8] [%] | % wild-type binding [9] [%] | % wild-type binding [10] [%] | % inhibition [11] [%] | % inhibition [12] [%] | also measured
10 | monoclonal antibody BL5 | 97.5 | 92.4 | 97.6 | 90.7 |  | 88.3 | 92.4 | 85.8 | 93.3 | 92.4 | 91.1 | 97 | 
11 | Mac-1 (αMβ2) mutant Q298C/N301C (from UniProt P05107 23-769) (receptor) |  |  |  |  |  |  |  |  |  |  |  |  | percent of binding by activated wild type transfectant (iC3b coated on plastic [13]): 0 to 5%; percent of binding by activated wild type transfectant (iC3b coated on plastic [14]): 5 to 25%
12 | monoclonal antibody CBRLFA-1/1 | 94.7 | 55.5 | 118 | 2.85 | > 90 | 89.4 | 43.6 | 95.9 | 86.1 | 93.3 | 9.03 | 92.5 | % of wild-type binding [15]: 40 to 50%; % of binding to the wild-type I-domain [16]: 80%
13 | monoclonal antibody 6.5E | 98.4 |  |  | 5.79 | > 90 |  |  |  |  |  |  |  | 
14 | Mac-1 (αMβ2) mutant Q163C/R313C (locked closed) (from UniProt P05107 23-769) (receptor) |  |  |  |  |  |  |  |  |  |  |  |  | percent of binding by activated wild type transfectant (iC3b coated on plastic [13]): 0 to 5%; percent of binding by activated wild type transfectant (iC3b coated on plastic [14]): 0 to 5%; percent of binding by activated wild type transfectant (iC3b coated on plastic [17]): 50 to 75%
15 | anti-β2 (CD18) monoclonal antibody CBRLFA-1/7 | 5.04 | 95.2 | 97.2 | 5.77 |  |  | 95.3 | 91.7 |  |  |  |  | 
16 | mouse anti-human αL (CD11a) monoclonal antibody TS1/11 | 96.5 | 96 | 105 | 41.3 | > 90 |  | 94.4 | 93.7 |  |  | 45.2 | 94.1 | % inhibition [19]: 40 to 60%
17 | Mac-1 (αMβ2) mutant F297C/A304C (from UniProt P05107 23-769) (receptor) |  |  |  |  |  |  |  |  |  |  |  |  | percent of binding by activated wild type transfectant (iC3b coated on plastic [13]): 0 to 5%
18 | mouse anti-human αL (CD11a) monoclonal antibody TS2/6 | 91.8 | 89.2 | 95.9 | 88.1 |  | 91.7 | 84.9 | 78.6 | 91.4 | 88.2 | 79.1 | 96.8 | 
19 | Mac-1 (αMβ2) mutant D294C/T307C (from UniProt P05107 23-769) (receptor) |  |  |  |  |  |  |  |  |  |  |  |  | percent of binding by activated wild type transfectant (iC3b coated on plastic [13]): 0 to 5%; percent of binding by activated wild type transfectant (iC3b coated on plastic [14]): 5 to 25%
20 | monoclonal antibody S6F1 | 6.19 | 97.4 | 85.7 | 9.7 |  | 92.3 | 89.4 | 95.3 | 98.3 | 86.4 |  |  | 
21 | mouse anti-human αL (CD11a) monoclonal antibody TS2/14 | 96.2 | 95.4 | 103 | 8.55 | > 90 | 103 | 85.5 | 83.3 | 103 | 100 | 2.95 | 94.5 | 
22 | monoclonal antibody May.017 | 97.8 |  |  | 2.98 | > 90 |  |  |  |  |  |  |  | 
23 | monoclonal antibody F8.8 | 97.6 | 102 | 93.9 | 98.2 |  | 95.5 | 93.7 | 83.6 | 95.9 | 99.6 | 91.9 | 94.5 | 
24 | monoclonal antibody RR1/1 |  |  |  |  |  |  |  |  |  |  |  |  | % inhibition [20]: 96%; % inhibition [21]: 97.9%
